The source of these data is patent publication US8147817B2, “IL-33 in the treatment and diagnosis of diseases and disorders” (The Brigham and Women's Hospital, Inc., priority 2006, dated 2012).

In series [1] the test system is rat neonatal cardiomyocytes. Kind of series: [3H]-leucine incorporation assay (hypertrophy). It counts as cell-based. The procedure: Leucine incorporation in rat neonatal cardiomyocytes was detected as previously described (7). Cells were pre-incubated with 1.0 μCi/mL [^3H]leucine for 24 hours. The medium was aspirated, and the cells were washed twice with ice-cold PBS and once with 10% trichloroacetic acid (TCA; Sigma) and fixed for 45 minutes at 4° C. with 10% TCA. After washing twice with cold 95% ethanol, radioactivity incorporated into the TCA-precipitable material was determined by liquid scintillation counting after solubilization in 0.15N NaOH.
Leucine incorporation in rat neonatal cardiomyocytes was detected as previously described (46). Cells were treated with 1.0 μCi/ml [^3H]-leucine for 24 hours, washed, fixed with 10% trichloroacetate (Sigma) for 45 minutes at 4° C., and then radioactivity was determined by liquid scintillation counting. An anti-mouse ST2 antibody (R&D) was used as a functional neutralizing antibody (12). A normal rat IgG2a (Sigma) and mouse IL-1Rrp2 (R&D) were used as controls for anti-mouse ST2 antibody (R&D) and mouse soluble ST2 (R&D), respectively.

Another series relates to NF-κB. Kind of series: NF-κB nuclear binding activity by EMSA in cardiac fibroblasts. The class given is cell-based, rat. Particulars: angiotensin-II 1 μM, phenylephrine 50 μM, IL-33 10 ng/ml. On the procedure:
Electromobility shift assays were performed as described previously (8). Cells were lysed for 10 minutes on ice in a solution containing 10 mM HEPES (pH 7.6), 15 mM KCl, 2 mM MgCl2, 0.1 mM ethylenediamine tetraacetic acid (EDTA), 1 mM dithiothreitol (DTT), 0.5 mM phenylmethylsulphonylfluoride (PMSF), 10 μg/mL leupeptin and 0.2% Nonident P-40. Dishes were gently scraped, and nuclei were collected by centrifugation at 800 g for 30 seconds and then suspended in a solution of 50 mM HEPES, 400 mM KCl, 0.1 mM EDTA, 10% glycerol, 1 mM DTT, 0.5 mM PMSF and 10 μg/mL leupeptin. The mixture was incubated on ice for 30 minutes, and the supernatant was collected after centrifugation for 15 minutes at 400 g. Binding reactions were performed with 5 or 10 μg of nuclear protein in 10 mM Tris, 1 mM DTT, 1 mM EDTA, 5% glycerol, 0.1% Triton X-100, 1 mg poly(dIdC), 5 μg bovine serum albumin (BSA) and approximately 10,000 cpm of −32P-labeled oligonucleotide. The binding reactions for AP-1 activity also contained 5 mM MgCl2. Control reaction mixtures contained a 100-fold excess of unlabeled oligonucleotide and were incubated with nuclear extracts of IL-1β-treated cells. DNA complexes were separated on a 4% nondenaturing polyacrylamide gel in Tris-HCl (6.7 mM), EDTA (1 mM) and ammonium acetate (3.3 mM). The oligonucleotides contained the NF-B binding site (sequence: 5′-AGTTGAGGGGACTTTCCCAGGC-3′ (SEQ ID NO: 15)) and were labeled by standard procedures.
EMSAs were performed as described previously (47). Cells were lysed for 10 minutes on ice in 10 mM HEPES (pH 7.6), 15 mM KCl, 2 mM MgCl2, 0.1 mM EDTA, 1 mM DTT, 0.5 mM PMSF, 10 μg/mL leupeptin, and 0.2% Nonident P-40. Dishes were gently scraped, and nuclei were collected by centrifugation at 800 g for 30 seconds and then suspended in a solution of 50 mM HEPES, 400 mM KCl, 0.1 mM EDTA, 10% glycerol, 1 mM DTT, 0.5 mM PMSF, and 10 μg/mL leupeptin. The mixture was incubated on ice for 30 minutes, and the supernatant was collected after centrifugation for 15 minutes at 400 g. […]
In general terms: Mobility shift assays separate free from complexed probe on a gel.

The next series deals with IκBα. Kind of series: IκBα phosphorylation by Western analysis in cardiac fibroblasts. The class given is cell-based, rat. On the procedure: (§1) Western analyses were performed as described previously (45). Membranes were incubated with primary antibodies overnight (anti-p44/42MAPK diluted 1:500; phospho-p44/42MAPK (Thr202/Tyr204) 1:1000; phospho-JNK (Thr183/Tyr185) 1:500; p38MAPK 1:500; phospho-p38MAPK (Thr180/Tyr182) 1:500; phospho-Akt (Ser473) 1:1000 and phospho-IκBα 1:1000, all from Cell Signaling, anti-mouse ST2L, from R&D 1:1000 and anti-IL-33 as described above, 1:500) at 4° C., detected with horseradish peroxidase-conjugated antibodies and enhanced chemiluminescence.

The subject of the next series is MAP kinases and Akt. Kind of series: Western analysis for MAP kinases and Akt in cardiomyocytes. The class given is cell-based, rat. The procedure: Phosphorylation of MAP kinases and Akt were detected by Western analysis as previously described (5). Membranes were incubated with primary antibodies overnight (phospho ERK1/2 diluted 1:1000; phospho SAPK/JNK diluted 1:500; phospho p38 MAPK diluted 1:500; phospho Akt (Ser473) diluted 1:1000). All antibodies were from Cell Signaling Technology, Inc. (Danvers, Mass.) and were sequentially detected with horseradish peroxidase-conjugated goat anti-rabbit IgG and enhanced chemiluminescence.
as §1

The test system of series [2] is lungs of Sham-operated mice. Kind of series: Lung histology of Sham-operated mice after IL-33 treatment. Particulars: 2 μg/day rat IL-33 for 7 days. It counts as in vivo, mouse.
Protocol: Targeted ST2−/− mice and their WT littermates were employed for the experiments. […] All operative procedures were performed by a single operator with over 20 years rodent cardiac surgery experience who was blinded to genotype and the randomized treatment assignment. Following the procedure, each mouse received daily i.p. injection of recombinant rat IL-33 (2 μg) or vehicle from the day after TAC operation until the day of harvest.
Series [3] concerns WT and ST2KO mice after MI. Kind of series: Experimental myocardial infarction with IL-33 treatment. It counts as in vivo, mouse. Particulars: recombinant rat IL-33 intraperitoneal daily up to 4 weeks. The source says: 86 mice with wild-type (WT) or ST2 knockout (ST2KO) genotypes were randomized into 4 subgroups, Sham or MI operated, and with or without IL-33 treatment. Experimental myocardial infraction operation was done by permanent occlusion of the left anterior coronary artery via open-chest approach under deep anesthesia. IL-33 treatment was done by a single 2 microgram/kg on each day, intraperitoneal, of recombinant rat IL-33 protein, from the day of operation up to 4 weeks.
MI was produced on 8-10 week old mice.

Entries after “also recorded” stand apart in the source; their conditions may differ.

B1: IL-33: recombinant mature rat IL-33, starting with amino acid 109 of the full-length protein, N-terminal His tag (GenBank BC081993) (protein)
chain: SIQGTSLLTESCALSTYNDQSVSFVLENGCYVINVEDCGKNQEKDKVLLRYYESSFPAQSGDGVDGKKLMVNMSPIKDTDIWLNANDKDYSVELQKGDVSPPDQAFFVLHKKSSDFVSFECKNLPGTYIGVKDNQLALVEENDESCNNIMFKLSKM
modifications: left off: small tags and cut ends
On to B1, for which the “hypertrophy (leucine uptake) induced by angiotensin-II or phenylephrine” value in series [1] (co-treatment with IL-33) is “can block cardiac hypertrophy; also recorded: potently blocked cardiomyocyte hypertrophy; also recorded: abrogates angiotensin-II- and phenylephrine-induced hypertrophy in cardiomyocytes in vitro; also recorded: blocks hypertrophy induced by angiotensin II; also recorded: dose dependent ability to decrease hypertrophy induced by angiotensin II and phenylephrine; also recorded: can antagonize hypertrophic effects of angiotensin II and phenylephrine; also recorded: blocked angiotensin-II or phenylephrine-induced leucine uptake in a dose-dependent manner”. The “hypertrophy (leucine uptake), IL-33 alone” value in series [1] (no other stimulus) was “modest, dose-dependent pro-hypertrophic trend that was not statistically significant; also recorded: modest hypertrophic effect; also recorded: non-significant trend toward stimulating hypertrophy”. Further, the “NF-κB activation by agent alone” value in the series on NF-κB was “independently activated NF-κB in both cell types”. In addition, in the series on IκBα, the “IκBα phosphorylation by agent alone” value is “induced IκBα phosphorylation in both cell types”. In the series with MAP kinases and Akt (IL-33 (10 ng/ml) alone), the “phosphorylation of ERK, p38 and JNK MAP kinases” value was “increased phosphorylation of ERK, p38 and JNK MAP kinases; also recorded: generally modest compared with IL-1β; also recorded: activated all MAP kinases”. For the same molecule, the Akt activation entry in the series on MAP kinases and Akt (IL-33 alone) is on record as “minimally activated Akt”. In addition, in the series with MAP kinases and Akt (co-treatment with IL-33), the “angiotensin-II-induced Akt activation” value is “did not impair angiotensin-II-induced Akt activation”, the “angiotensin-II-induced ERK phosphorylation” value is given as “did not affect ERK phosphorylation”, the “angiotensin-II-induced JNK phosphorylation” value is listed as “decreased” and the “angiotensin-II-induced p38MAPK phosphorylation” value is recorded as “decreased”. Also, the “inflammatory changes in lung” value in series [2] (ST2−/− mice) is “None of these changes were observed; also recorded: These changes were not observed”. Besides, in series [2] (WT mice), the “epithelial lining of the airways” value is given as “remained unchanged”; the “infiltration of inflammatory cells in lung” value is “Mild infiltration of inflammatory cells within vessel walls and adjacent to the vessels; also recorded: mild focal infiltrations of inflammatory cells”. In series [3] (ST2KO mice), the survival after infarction result is “eliminates this benefit”. Further, the survival after infarction entry in series [3] (WT mice) is on record as “improves survival after infarction”.
